# Assay results from patent publication US20180155451A1 (published 2018).
# B1: GpH7-A5/GpH7-B3 variant (T335_10E)/GpL16-k0 (antibody, human IgG1, kappa)
# heavy 1: not shown
# heavy 2: not shown
# light: DIVMTQSPLSLPVTPGEPASISCQASESLVHSNRNTYLHWYLQKPGQSPQLLIYKVSNRFSGVPDRFSGSGSGTDFTLKISRVEAEDVGVYYCSQNTHVPPTFGQGTKVEIERTVAAPSVFIFPPSDEQLKSGTASVVCLLNNFYPREAKVQWKVDNALQSGNSQESVTEQDSKDSTYSLSSTLTLSKADYEKHKVYACEVTHQGLSSPVTKSFNRGEC
# notes: Heterodimerized; only the B3 chain altered; also called He Ab T335_10E
# B2: GpH7-A5/GpH7-B3 variant (Y296_06M)/GpL16-k0 (antibody, human IgG1, kappa)
# heavy 1: not shown
# heavy 2: not shown
# light: B1 light
# notes: Heterodimerized; only the B3 chain altered; also called He Ab Y296_06M
# B3: GpH7-A5/GpH7-B3 variant (Y300_03V)/GpL16-k0 (antibody, human IgG1, kappa)
# heavy 1: not shown
# heavy 2: not shown
# light: B1 light
# notes: Heterodimerized; only the B3 chain altered; also called He Ab Y300_03V
# B4: GpH7-A5/GpH7-B3 variant (Y300_02A)/GpL16-k0 (antibody, human IgG1, kappa)
# heavy 1: not shown
# heavy 2: not shown
# light: B1 light
# notes: Heterodimerized; only the B3 chain altered; also called He Ab Y300_02A
# B5: GpH7-A5/GpH7-B3 variant (T335_08L)/GpL16-k0 (antibody, human IgG1, kappa)
# heavy 1: not shown
# heavy 2: not shown
# light: B1 light
# notes: Heterodimerized; only the B3 chain altered; also called He Ab T335_08L
# B6: GpH7-A5/GpH7-B3 variant (Y300_11K)/GpL16-k0 (antibody, human IgG1, kappa)
# heavy 1: not shown
# heavy 2: not shown
# light: B1 light
# notes: Heterodimerized; only the B3 chain altered; also called He Ab Y300_11K
# B7: GpH7-A5/GpH7-B3 variant (T335_12R)/GpL16-k0 (antibody, human IgG1, kappa)
# heavy 1: not shown
# heavy 2: not shown
# light: B1 light
# notes: Heterodimerized; only the B3 chain altered; also called He Ab T335_12R
# B8: GpH7-A5/GpH7-B3 variant (Y296_16H)/GpL16-k0 (antibody, human IgG1, kappa)
# heavy 1: not shown
# heavy 2: not shown
# light: B1 light
# notes: Heterodimerized; only the B3 chain altered; also called He Ab Y296_16H
# B9: GpH7-A5/GpH7-B3 variant (Y296_12R)/GpL16-k0 (antibody, human IgG1, kappa)
# heavy 1: not shown
# heavy 2: not shown
# light: B1 light
# notes: Heterodimerized; only the B3 chain altered; also called He Ab Y296_12R
# B10: GpH7-A5/GpH7-B3 variant (Y296_20W)/GpL16-k0 (antibody, human IgG1, kappa)
# heavy 1: not shown
# heavy 2: not shown
# light: B1 light
# notes: Heterodimerized; only the B3 chain altered; also called He Ab Y296_20W
# B11: GpH7-A5/GpH7-B3 variant (Y300_06M)/GpL16-k0 (antibody, human IgG1, kappa)
# heavy 1: not shown
# heavy 2: not shown
# light: B1 light
# notes: Heterodimerized; only the B3 chain altered; also called He Ab Y300_06M
# B12: GpH7-A5/GpH7-B3 variant (T335_15Y)/GpL16-k0 (antibody, human IgG1, kappa)
# heavy 1: not shown
# heavy 2: not shown
# light: B1 light
# notes: Heterodimerized; only the B3 chain altered; also called He Ab T335_15Y
# B13: GpH7-A5/GpH7-B3 variant (T335_11K)/GpL16-k0 (antibody, human IgG1, kappa)
# heavy 1: not shown
# heavy 2: not shown
# light: B1 light
# notes: Heterodimerized; only the B3 chain altered; also called He Ab T335_11K
# B14: GpH7-A5/GpH7-B3 variant (Y300_13S)/GpL16-k0 (antibody, human IgG1, kappa)
# heavy 1: not shown
# heavy 2: not shown
# light: B1 light
# notes: Heterodimerized; only the B3 chain altered; also called He Ab Y300_13S
# B15: GpH7-A5/GpH7-B3 variant (Y300_14T)/GpL16-k0 (antibody, human IgG1, kappa)
# heavy 1: not shown
# heavy 2: not shown
# light: B1 light
# notes: Heterodimerized; only the B3 chain altered; also called He Ab Y300_14T
# B16: GpH7-A5/GpH7-B3 variant (T335_20W)/GpL16-k0 (antibody, human IgG1, kappa)
# heavy 1: not shown
# heavy 2: not shown
# light: B1 light
# notes: Heterodimerized; only the B3 chain altered; also called He Ab T335_20W
# B17: GpH7-A5/GpH7-B3 variant (Y300_20W)/GpL16-k0 (antibody, human IgG1, kappa)
# heavy 1: not shown
# heavy 2: not shown
# light: B1 light
# notes: Heterodimerized; only the B3 chain altered; also called He Ab Y300_20W
# B18: GpH7-A5/GpH7-B3 variant (Y300_08L)/GpL16-k0 (antibody, human IgG1, kappa)
# heavy 1: not shown
# heavy 2: not shown
# light: B1 light
# notes: Heterodimerized; only the B3 chain altered; also called He Ab Y300_08L
# B19: GpH7-A5/GpH7-B3 variant (T335_18N)/GpL16-k0 (antibody, human IgG1, kappa)
# heavy 1: not shown
# heavy 2: not shown
# light: B1 light
# notes: Heterodimerized; only the B3 chain altered; also called He Ab T335_18N
# B20: GpH7-A5/GpH7-B3 variant (Y300_19Q)/GpL16-k0 (antibody, human IgG1, kappa)
# heavy 1: not shown
# heavy 2: not shown
# light: B1 light
# notes: Heterodimerized; only the B3 chain altered; also called He Ab Y300_19Q
# B21: GpH7-A5/GpH7-B3 variant (T335_09D)/GpL16-k0 (antibody, human IgG1, kappa)
# heavy 1: not shown
# heavy 2: not shown
# light: B1 light
# notes: Heterodimerized; only the B3 chain altered; also called He Ab T335_09D
# Biological target: T1, FcγRIa extracellular domain with C-terminal His tag (human, UniProt P12314 16-292)
# T1 construct: extracellular domain; Expressed in FreeStyle293 cells; used as analyte in Biacore; also called FcgRI; 1a; not shown: His tag at the C terminus
# T1 sequence (P12314 16-292): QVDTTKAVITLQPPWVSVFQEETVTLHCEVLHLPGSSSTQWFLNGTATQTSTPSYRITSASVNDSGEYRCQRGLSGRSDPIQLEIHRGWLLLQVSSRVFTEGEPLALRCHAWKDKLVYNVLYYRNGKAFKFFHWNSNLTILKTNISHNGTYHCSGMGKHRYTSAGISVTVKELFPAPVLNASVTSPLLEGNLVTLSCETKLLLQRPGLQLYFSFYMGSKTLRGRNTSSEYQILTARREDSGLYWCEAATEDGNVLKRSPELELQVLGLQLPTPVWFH
# Assay: SPR (Biacore), captured antibody, FcγRIa analyte; relative to GpH7-A5/GpH7-B3/GpL16-k0 = 100
row,He/Con_1a,Binder
1,109 % of control,B1
2,104 % of control,B2
3,117 % of control,B3
4,112 % of control,B4
5,115 % of control,B5
6,107 % of control,B6
7,113 % of control,B7
8,106 % of control,B8
9,106 % of control,B9
10,111 % of control,B10
11,112 % of control,B11
12,107 % of control,B12
13,111 % of control,B13
14,111 % of control,B14
15,112 % of control,B15
16,106 % of control,B16
17,112 % of control,B17
18,113 % of control,B18
19,106 % of control,B19
20,112 % of control,B20
21,108 % of control,B21
